Consider three molecules from publication PMC10374971, “In vivo and in vitro characterizations of melibiose permease (MelB) conformation-dependent nanobodies reveal sugar-binding mechanisms” (The Journal of Biological Chemistry, 2023).

By Kd is commonly meant the free concentration of one partner at which half of the binding sites on the other are occupied at equilibrium, for simple one-to-one binding. What is called stoichiometry N is a count of units in the complex or per binding partner.

Assay [1] addresses MelBSt (Salmonella enterica serovar Typhimurium) (UniProt P30878). The following applies: cited from earlier work.
Assay [2] addresses MelBSt/Nb733 complex, formed beforehand (MelBSt 50 μM with Nb733 75 μM, molar ratio 1:1.5) (Salmonella enterica serovar Typhimurium | Lama glama) (UniProt P30878). Description: ITC; EIIA^Glc (450 μM) in the syringe, MelBSt (50 μM), free or complexed with Nb733 (75 μM), in the sample cell; 20 mM Tris-HCl pH 7.5, 100 mM NaCl, 0.01% DDM, 10% glycerol; 25 °C; one-site independent-binding model. On the technique in general: Isothermal titration calorimetry measures the heat released or taken up as one component is titrated into another.

In assay [3] the target is T1, Salmonella enterica serovar Typhimurium melibiose permease (MelBSt), wild type (Salmonella enterica serovar Typhimurium, UniProt P30878 6-476).
T1 construct: melibiose permease MelB of Salmonella enterica serovar Typhimurium, wild type; Membrane protein in detergent (0.01% DDM) in the ITC; also called WT MelBSt; source: E. coli DW2, plasmid pK95 ΔAH/MelBSt/CHis10
T1 sequence (P30878 6-476): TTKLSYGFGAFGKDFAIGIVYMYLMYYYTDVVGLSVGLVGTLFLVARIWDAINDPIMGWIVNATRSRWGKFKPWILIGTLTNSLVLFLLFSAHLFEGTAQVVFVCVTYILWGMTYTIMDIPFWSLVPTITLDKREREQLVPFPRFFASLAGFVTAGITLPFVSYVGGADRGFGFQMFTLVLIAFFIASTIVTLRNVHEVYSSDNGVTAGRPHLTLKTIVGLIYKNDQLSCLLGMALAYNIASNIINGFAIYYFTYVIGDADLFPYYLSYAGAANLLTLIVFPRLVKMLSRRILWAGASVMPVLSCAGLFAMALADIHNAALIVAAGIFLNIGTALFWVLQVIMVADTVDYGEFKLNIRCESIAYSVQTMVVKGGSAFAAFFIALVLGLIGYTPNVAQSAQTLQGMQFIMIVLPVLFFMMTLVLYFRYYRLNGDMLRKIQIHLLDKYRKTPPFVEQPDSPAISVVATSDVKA
Described as above. As to conditions: both partners purified.

MelBSt/Nb733 complex, formed beforehand (MelBSt 50 μM with Nb733 75 μM, molar ratio 1:1.5) (Salmonella enterica serovar Typhimurium | Lama glama), sequence (P30878 whole entry, looked up, one chain of several): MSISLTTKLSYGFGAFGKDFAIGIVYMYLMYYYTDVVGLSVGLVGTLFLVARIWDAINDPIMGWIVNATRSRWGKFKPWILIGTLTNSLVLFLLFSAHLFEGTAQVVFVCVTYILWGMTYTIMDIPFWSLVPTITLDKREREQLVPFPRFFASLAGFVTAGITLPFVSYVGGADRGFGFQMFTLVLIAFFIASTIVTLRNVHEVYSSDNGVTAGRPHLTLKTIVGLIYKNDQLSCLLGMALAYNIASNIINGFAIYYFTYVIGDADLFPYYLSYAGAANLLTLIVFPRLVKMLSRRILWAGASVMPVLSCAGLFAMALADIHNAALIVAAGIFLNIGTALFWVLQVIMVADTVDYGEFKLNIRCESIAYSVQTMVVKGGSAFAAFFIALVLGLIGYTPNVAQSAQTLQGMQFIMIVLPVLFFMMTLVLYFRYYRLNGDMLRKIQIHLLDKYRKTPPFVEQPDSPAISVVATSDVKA
MelBSt (Salmonella enterica serovar Typhimurium), sequence (P30878 whole entry): as the sequence (P30878 whole entry, looked up, one chain of several) above

On to EIIAGlc (from UniProt P69783), for which, in assay [1], the dissociation constant Kd is 0.003 mM.

With “EIIA^Glc of the glucose-specific phosphoenolpyruvate/sugar phosphotransferase system, unphosphorylated (from UniProt P69783 1-169) (natural protein)”, in assay [2], the Kd came to 8.12 mM, the dH was -6.75 kcal/mol and the stoichiometry N stood at 0.76.

B1: EIIA^Glc of the glucose-specific phosphoenolpyruvate/sugar phosphotransferase system, unphosphorylated (natural protein, UniProt P69783 1-169, looked up)
chain: MGLFDKLKSLVSDDKKDTGTIEIIAPLSGEIVNIEDVPDVVFAEKIVGDGIAIKPTGNKMVAPVDGTIGKIFETNHAFSIESDSGVELFVHFGIDTVELKGEGFKRIAEEGQRVKVGDTVIEFDLPLLEEKAKSTLTPVVISNMDEIKELIKLSGSVTVGETPVIRIKK
notes: regulatory enzyme EIIA^Glc of the glucose-specific phosphotransferase system, unphosphorylated; source: E. coli T7 Express, overexpressed, as described (24)
Regarding B1, in assay [3], the Kd was 3.33 mM, the dH is -9.54 kcal/mol and the “stoichiometry N” value came to 0.81.
